Experimental data from a protein production outcome set (Wang et al. 2014).

Test: label from the status in PepcDB records

Row | Sequence | protein production
1 | MTALAVTLKNWFFTRNSMILNANILLFIILFNTLPFEPQVVTGISILVFVAILWLTEAIHVSITALLIPMLAVFLGVFNTQAALNNFSNSIIFLFLGGFALAAALHKQKLDQALADKVLLIARGRMSVAVFMLFGVSAGLSMWISNTATAAMMLPLVLGVMTKLDAKKNHNTFLFVLLGIAYSASIGGIATLVGSPPNAIAAAEVGLNFTEWMKLGLPISLILMPIAILVLYTMTKPDLSHKFELDHKPVEWTNGKMVTLAIFLLTVTLWIFSKPINTMLGGFAKFDTLVAIGAILLLGASRAVEWKDIEKTTDWGVLILFGGGICLSNVLKATGTSVFLAHSLTGFLEQAGVLLTILSVVAFVVFLTEFASNTASAALLVPVFATIAEALGLSPVILSALIAVAASCAFMLPVATPPNAIVFGTGHIKQKEMMRIGFVLNIACIGALTLFAWLFW | failed
2 | PLKEQKVINTANIKTNSKLDLAEYENGLINIATQQFDTESHVLQLNQYIPEKLIDELVAKVEAPVLTNIIEQDYFGKQNSNELSLSGVMIGLAMSSSVSNEEAMSKGTEVAKQLIEAINKNDKYNKSPITFAIFKQESTSSLKNGTYIASATVQKNDTNLGNWSTIDEKSYSYPSDEFTQAHGEDNTKINNFAKEIKGFSNGDFIPVNAKVSYKKDQMDTLNMNIVIKYNGKTELMALTQLAAQGMLDKLPKDAKVQLQIKSESKIEAVIIKEKNSDKPFV | failed
3 | MDKKYDITAVLNEDSSMTAISDQFQITLDARPKHTAKGFGPLAALLSGLAACELATANLMAPAKMITINKLLMNVTGSRSTNPTDGYFGLREINLHWEIHSPNSETEIKEFIDFVSKRCPAHNTLQGVSQLKINVNVTLVH | not failed
4 | MRMLAHAIKVWNENTGALSHLEIEPLPHQIHLVHHILASGNFNWLIADDVGLGKTIETGMLLHALQQRDLAKRILLITPAGLTKQWQEELYHKFKLEDFEIYGEDFFINEPRQWKMHDCVIGSMDRLKQVDHLESLLQAEPWDLVIFDEGHRLSRRQYGQKLDSSERYDLAKNLRSQTKHMLLLSATPHQGMQDKFVALLELLRPERR | failed
5 | MDAKETSATDLKRPREEDDNGGAATMETENGDQKKEPACFSTVIPGWFSEMSPMWPGEAHSLKVEKVLFQGKSDYQDVIVFQSATYGKVLVLDGVIQLTERDECAYQEMITHLPLCSIPNPKKVLVIGGGDGGVLREVARHASIEQIDMCEIDKMVVDVSKQFFPDVAIGYEDPRVNLVIGDGVAFLKNAAEGSYDAVIVDSSDPIGPAKELFEKPFFQSVARALRPGGVVCTQAESLWLHMDIIEDIVSNCREIFKGSVNYAWTSVPTYPSGVIGFMLCSTEGPDVDFKHPLNPIDESSSKSNGPLKFYNAEIHSAAFCLPSFAKKVIESKAN | failed
6 | MKMHRDSISLNSYEEMAEYYFSYVDQKPFNAYYERPATLSLLPDVAGKRVLDAGCAAGWYTQWLLDKGAAVTAVDFSAGMIEMTRKRVGERAEIIRADLNEPLDFMAKESCDIVLSSLALHYLKDWTLVMSEFHRILAKGGLLIFSVHHPFMDFTVFQRDNYFLTELLDDEWETQKGKVKVQFYRRPLSQILSAVLEAGFLLEKVLEPMPTEEFKSAQPDAYRRLTYKPQFLFLRARKP | failed
7 | MASYHVSHDSYQSPGPSPLYQPIIEAPPPPYPPTRTRYQDYYGGYGQPHPPPLRPYRSDHEYYGDGEYVGCFPFLRSCLTTLCCCWFVEQCCFRSRY | not failed
8 | MSRKVILTCAVTGNAPFNPKHPSMPITPAQIADACVEAAKAGASVAHIHVRDPKTGGGSRDPVLFKEVVDRVRSSGTDIVLNLTCGLGAFLLPDPEDESKALPESDVVPVAERVKHLEDCLPEIASLDITTGNQVEGKLEFVYLNTTRTLRAMARRFQELGIKPELEVFSPGDILFGKQLIEEGLIDGVPLFQMVLGVLWGAPASTETMIYQRNLIPANAQWAAFGIGRDQMPMMAQAALLGGNVRVGLEDNLYLSRGVFATNGQLVERARTVIEHLGMSVATPDEARDIMGLSRPA | not failed
9 | MASLSYPKTTMQIQLGANLKPYHTFGIEQLAAQLVVAESIDDLKALYCSAEWASLPKLIIGKGSNMLFTCHYTGMIVVNRLNGIEHQQDDDYHRLHVAGGEDWPSLVSWCVEQGIGGLENLALIPGCAGSAPIQNIGAYGVEFKDVCDYVEYLCLETGTVKRLTMEECQFGYRDSIFKHQLYQKAVVTAVGLKFAKAWQPIIQYGPLKDLSSDCAIHDVYQRVCATRMEKLPDPAVMGNAGSFFKNPVISQQAFARLQIEHPDVVAYPAEQGVKVAAGWLIDQAGLKGHQIGGAKVHPKQALVIVNTGDASAQDVLMLAADIQQRVFNCYGIELEHEVRFIGESEETNLKQWMSEQA | not failed
10 | MSLASNKKYTFACLLPKHLEGEYWTDVQKGIREAVTTYSDFNISANITHYDPYDYNSFVATSQAVIEEQPDGVMFAPTVPQYTKGFTDALNELGIPYIYIDSQIKDAPPLAFFGQNSHQSGYFAARMLMLLAVNDREIVIFRKIHEGVIGSNQQESREIGFRQYMQEHHPACNILELNLHADLNIEDSRMLDDFFREHPDVKHGITFNSKVYIIGEYLQQRRKSDFSLIGYDLLERNVTCLKEGTVSFLIAQQPELQGFNSIKTLCDHLIFRKEVACTNYMPIDLLTKENIDYYHSEGHHHHHH | not failed
11 | MPNSRPRPRRGAGGGAGAAGRDRLVARSLQSAEHCLGDQDFGTAYAHYLLVLSLAPELKDDVKETFQYTLFKWAEELHALSRIQDLLGCYEQALELFPDDEVICNSMGEHLFRMGFRDEAAGYFHKAVKLNPDFNDAKENFYRVANWLVERWHFIMLNDTRRNMVYNAAIQKAVCLGSRTVLDIGTGTGILSMFAKKAGAQSVYACELSKTMYELACDVVAANKMENGIKLLHMKSLDIEIPKHIPERVSLVVTETVDAGVFGEGIVESLIHAWEHLLLQPKTKEENGNCGKYGKVIPAGAVIFGMAVECAEIRRHHRVGAKDIAGIHLPTNVKFQSPAYTSVDTEETVEPYTTEKMSGIPGGYLPLTECFQIMKVDFNNLQELKSLATKKPHSLNVPAIKEGVLDAIMVWFVLQLDDEYSLSTSPSEETCWEQAVYPVQALEDYCIQPGDRVTMEASCHDCYLRIQGISILHLEHEMEVMKGFTKSKDLLSLGNEAELCSALANLQTSRPEALEQTCMLEPTEIALLNNIPYHEGFKTAMRKVLSSLAPELLWQPMDTHCQYMEMNSGSGQSDAAPSTADPFYVLDVSEGFSLLPILAGTLGHVKPYSSVEKDQHCIALDLIAEANHFPKETLEFWLRHIEDEAAVLQRPKSDKLWSIIILDVIEPSGLIQQELMEKAAISRCLLQSGGKIFPQYVLMFGMLVESQTLVEESAVQGTEHTLGLNIAPFINQFQVPIRVCLDLSSLPCVPLSQPVELLRLDLMTPYLNTSNKEVKVRVCRSGRVTAVPFWFHLCLDDEVRLDTSGEASHWKQAAVVLDNPIQVQAGEELVLSVEHHKSNVSIAVKP | failed
12 | TIDRDIQWAAQNAITEQVEKSGADRGYVMVQDTRTGEILAMANSPGFDPNDLSKASSAALGNAALQDAYEPGSTAKVMSMAAVLEENVATPETHVVVPNRLHRGDRLFQDDIDHPTWNLTLNGVLAKSSNIGTILAAGQLGKTQKQANEVLYSYMRKFGIGLPTGLGFPGETSGILAPAAKWSTSQQYTIPFGQGVSINAMQAASVYSTIANGGVRVEPTLVRGTKGPDGRFTPAPRPKKTRVVSEKTAKTLAQMLESVVDDEEGTGAKARIPGYRVAGKTGTANRVDPATGKYHGYTSSFAGFAPADNPRITVYCAIQNATQGSYFGGQICGPIYKQVMEFALKTLQVPPTGAGAAHLPVTFTP | failed
13 | MWPNGSSLGPCFRPTNITLEERRLIASPWFAASFCVVGLASNLLALSVLAGARQGGSHTRSSFLTFLCGLVLTDFLGLLVTGTIVVSQHAALFEWHAVDPGCRLCRFMGVVMIFFGLSPLLLGAAMASERYLGITRPFSRPAVASQRRAWATVGLVWAAALALGLLPLLGVGRYTVQYPGSWCFLTLGAESGDVAFGLLFSMLGGLSVGLSFLLNTVSVATLCHVYHGQEAAQQRPRDSEVEMMAQLLGIMVVASVCWLPLLVFIAQTVLRNPPAMSPAGQLSRTTEKELLIYLRVATWNQILDPWVYILFRRAVLRRLQPRLSTRPRRVSLCGPAWSTVARSRLTATSASRVQAILVPQPPEQLGLQA | failed
14 | MKAVIMAGGFGTRIQPLTSSIPKPMIPLLNRPIMLHIVELLKKYEITDLVMLLYHQPAVIKNFFRDGTDFGVKITYVTPLQDMGTAGAVKCAEKFLDERFLVISGDLLTDFNLQKIIDSHEDNKALATITLTSVKDPLQFGVVITDKEKRITQFLEKPGWGEVISDTINTGIYVFEPEIFAHIPEEENYDFSQDLFPKLLEQQKPLFGYTAKGYWRDIGNTDSYREAHHDIFKGKVNVKIDEAKQDLVGKDLRLGSDVNLDEHVTLEGTVVVGDNSQVFESAHIKDTVIGRNCTIEPGVRLNRCVIWDNVYVKKGAKLNDGVLCSNVRVGHGVVMEEGVIVADDTSIGEEAYIKRDVKIWPRKVIEAGATVTGNLIWGEKWKKSLFEGAMVKGLTNMELTPEFVAKLGCAYGTMLPKGSHIISGRDSYRSCRMLKRSFIGGLLSAGINVRDLTMVPMPVLRYKLRTFGEVGGIYFRQAIDDPASTEIVFLDGDGLDFSSSMGKNVERIFFKENFRRAHHTEPGALSEIPQQVTDFYREGFLHTIGKSPLQKKQFKVVIDFNHSSASQLLPGILTQMGCEVISLNAYVDEERGIQAVAERQQSLAQLSKIVATLEASAGFWLDPGTEGVIVVDETGKVYEGAELLPLMVGLALRSGEKGLFAVPVSAPSAIERMVQERGSAVTRTKSADRAMIEATLSSEVVLAGTMDGRFAFPKFQSAFDGMFAIAKTIELVAKGGLSISRVAAEIPQRVFLQTRVPCVWDMKGGIMRKMSEDSLDKEASFIDGIKVHFGEDWALVLPDQYLPYVHIVAEARDAKTAQKLLDEYKKKVEGWKRELQ | failed
15 | MMDTVKNRRTIRKYQQKDITPDLLNDLLETSFRASTMGGMQLYSVVVTRDAEKKEILSPAHFNQPMVKEAPVVLTFCADFRRFCKYCQERNAVPGYGNLMSFLNAAMDTLLVAQTFCTLAEEAGLGICYLGTTTYNPQMIIDALHLPELVFPITTVTVGYPAESPKQVDRLPIEGIIHEESYHDYTAEDINRLYAYKESLPENKLFIEENQKETLPQVFTDVRYTKKDNEFMSENLLKVLRRQGFMD | not failed
16 | MNSSESKSLVVIGGGGHASVLVDILRSQQREILAIVSPENISQRRIFSGITHLKNDDDILRFSPDSVNLVNGVGMLPKSGLKRKLNEYFLSLGYTFETVISDSAQVSSFAEIEQGAQVFSGAIIQAGVVIDAHTIINSGVIIEHDCHIGEYNHIAPKATLCGQVTTHSNVYVGANATVIQNITLEQGSIVGAGAIVTKNISSEQICYPSRSVLK | failed
17 | MVPALALGLVIGVLLVVIGVSFAAMIFSGPLAPLATRGAGLTLFGAASLCGFLAVSSSFRSAISTPQDAPVAVLATMGVPVVAAMGMSDPNATFATMLAAMSIATLATGIALMAIGHFRLTRFFRFMPYPVVGGFLAGGGWMLVKGGISVMSSLSLNVESLPMLFESVHIWKWSPGVLYAISLWLVLKRWSHFLILPCSIVMVTAAYYVAFHILAISLADARAAGILLSGVPSSGLWPAFSISDLQTVRWDIVFDQTPIMFTVVLVTMMGLLLNISGLELGSGTDIDFDREFRNAGLANTLGGLGGSAPGSHTLSLSLLCSSSGAYTRLAGIITASVIAAVLFMGGSVLEYFPLPVLGGLLVFLGIDIMDSWLRATRRRLPLSDYLVLCVIFLVICFSGFLEGVAVGLVITVVLFIIRLSKVDIIHDSFTGLTLHSRVNRSIPQRTILQQHGERIRGYRLSGYLFFGSASLLVETLKQELRKTPQPWCILLDFKNVSGFDISAANAFQRFISSAHAEHVRIVLTETSPRFISMLQRILPIESIDNLVTAQDIDRGLEACEEAILTEYTERTAQQANAADMLFEQSVDDMMAHLDRQILFEALVEELRPWVQECHYEGETLLVEKGKTQQGLQMLVWGSATATDGDGGTRLAHLRAGDVLVPQAAFAPFVAREHIMADSPCRTVLLTAQARLLMEQENPDLALRLDRYVISSWKA | failed
